B1: LINE1-full (parent)
chain: UACGUAGGUGGUUUUCCCCUGAUAGUGCUAAGGGGGCCUGGAAGUUUGGACUGGGCAGAGCUCAACACAGCGUGGCAAAGUGGCUGUGGCUAGACUGCCUCUCUGGAUUCCUCGUCACUCAGCAGGGCAUCUCUGAGAGAAAUGCC

Variants of B1 are the subject of the data set. In words: self-cleavage, relative activity (ratio to wild type); higher = more cleavage; in vitro, sequencing; the parent is a self-cleaving ribozyme.
Turning to U87C U134A, the self-cleavage was 0.18.
The same measure for G86A A142G: 0.06; for U91A U100A: 0.56.
Consider U87C U132A, for which the self-cleavage was determined as 0.33.
The same measure for G88A U108C: 0.05.
The same measure for G88A A141G: 0.08; for U87A A141U: 0.08; for U87A A141G: 0.06.
The same measure for U87A U108C: 0.11; for U87A U108A: 0.06.
Turning to U87C U130C, the self-cleavage is 0.35.
For the variant U87C U130A, the self-cleavage worked out at 0.19.
The same measure for A92G A136U: 0.05; for A92G A136G: 0.08.
To G86U G105A belongs 0.06; to A94G C128U, 0.22; to A92C A124G, 0.
To A92U G139A belongs 0.76; to G93A A138G, 0.06.
Regarding U87A U102C, the self-cleavage worked out at 0.08.
In the case of C90U U108A, the self-cleavage came to 0.05.
To C90U U108C belongs 0.03; to C90G A136U, 0.04.
G86U U96G: the self-cleavage was 0.13.
To U87G A94G belongs 0; to U91C U112C, 0.59.
The same measure for C90U A136G: 0.05; for A92G A121U: 0.09.
The same measure for A92G A121G: 0.11; for U91C C95A: 0.08.
Regarding U91C U100A, the self-cleavage worked out at 0.15.
To G86A U112C belongs 0.08; to A92C A129G, 0.
Take G89A U119C: the self-cleavage was found to be 0.06.
To G86A A140U belongs 0.09; to U91A C116U, 0.53.
For G88A U96A, the self-cleavage was determined as 0.03.
The same measure for U87G U115C: 0.03.
In the case of A92U A142G, the self-cleavage is 0.66.
As for A92U G106U, the self-cleavage came to 0.62.
The same measure for C90A U134A: 0.04.
To C90U U100C belongs 0.
To U87A A107G belongs 0.1.
In the case of U87A A107U, the self-cleavage is 0.09.
The same measure for G93U U96C: 0.06; for A92G U102C: 0.11; for U91G U108C: 0.
As to G89A U109C, the self-cleavage was 0.04.
The same measure for U91A A124G: 0.33.
In the case of C90G U132C, the self-cleavage turned out to be 0.05.
To G86U A124G belongs 0.07; to U91G A138G, 0; to G88A A142G, 0.06.
For G86U A138G, the self-cleavage is 0.09.
U87C G105A: the self-cleavage worked out at 0.14.
The same measure for G88A A140G: 0.08.
The same measure for G88A U102A: 0.04; for G88A U102C: 0.06.
In the case of A92U G127A, the self-cleavage was determined as 0.39.
To C90G A121U belongs 0.02; to U91G C111U, 0.02; to G89A U108C, 0.04.
The same measure for G86A C110U: 0.09.
The same measure for G88C A141G: 0.14.
For the variant G93A G105U, the self-cleavage was 0.02.
Take A92U U102C: the self-cleavage was determined as 0.3.
To A92U U102A belongs 0.79; to G89A U100A, 0.04.
Consider U87C A107G, for which the self-cleavage was found to be 0.27.
To U87C U104C belongs 0.22; to U87C U104A, 0.09; to U91C A141G, 0.92.
To A92G A117G belongs 0; to A92G A117U, 0.08; to U87C U115C, 0.31.
To U87C U115A belongs 0.17; to A94G A117G, 0.36; to A94G A117C, 0.26.
A92G C98A: the self-cleavage was determined as 0.08.
The same measure for U91C U109A: 0.48; for G93U U102A: 0.02.
To A92U U100C belongs 0.9.
The same measure for A92U A138U: 0.53.
Regarding A92U A138G, the self-cleavage is 0.75.
To U91A A94G belongs 0.09.
To G88A U112A belongs 0.08; to A92U G114U, 0.67; to G86A A121U, 0.26.
To G89A A94G belongs 0.07.
With U91C U115G, the self-cleavage was found to be 0.69.
The same measure for U91C U115C: 0.83; for U91C U115A: 0.56; for U87C A141G: 0.24.
With G88A A129G, the self-cleavage turned out to be 0.07.
Take U87A A117U: the self-cleavage stood at 0.04.
The same measure for U91C C123U: 0.8.
To G93A C101A belongs 0.04; to U87A A129G, 0.11; to U91C A124U, 0.
The same measure for U91C A124G: 0.33.
On to G89A A136G, for which the self-cleavage came out at 0.04.
The same measure for A92U A124G: 0.5; for A92U U112C: 0.48; for U87A C145U: 0.1.
To A94G A136G belongs 0.34.
The same measure for A92G U115A: 0.12; for G89U A92U: 0.07; for U87G A124U: 0.17.
U87G A124G: the self-cleavage was 0.31.
On to U91A U96C, for which the self-cleavage came out at 0.12.
As for U87A A124G, the self-cleavage was 0.07.
The same measure for G93A A107G: 0.06.
To C90G A92G belongs 0.03; to G86A U119C, 0.07; to U87C U102C, 0.36.
To U87A U104A belongs 0.06; to U87A U104C, 0.11; to G88U A142G, 0.
G89A U130C: the self-cleavage turned out to be 0.02.
Consider U87A A140G, for which the self-cleavage came out at 0.07.
For U87G U143C, the self-cleavage stood at 0.18.
The same measure for U87G U143A: 0.22; for A94G C95A: 0.07; for G93A A94G: 0.09.
To G88A A124G belongs 0.06; to U87G A136U, 0.18; to A92G U112C, 0.13.
The same measure for A92G U112A: 0.09; for A92G U108C: 1.11; for G88U U115A: 0.07.
For U87C U91C, the self-cleavage was determined as 0.31.
To U87C U91A belongs 0.2; to G88A A92G, 0.02; to A94C U115A, 0.1.
To A94G C116U belongs 0.28; to A92U A107G, 0.94.
The same measure for A92C C128U: 0.31.
Regarding U87C A124G, the self-cleavage was found to be 0.11.
The same measure for U87C A124U: 0.33; for C90U U96A: 0.06.
The same measure for C90U G114U: 0.03; for G89C G144A: 0.05.
To U91G A94G belongs 0; to U91A U115C, 0.78; to A94C U130C, 0.09.
For the variant U87A C146U, the self-cleavage is 0.09.
With U91C C128U, the self-cleavage was 1.
As to G88A U132C, the self-cleavage was found to be 0.09.
On to G86A A136G, for which the self-cleavage was 0.09.
The same measure for G86A A136U: 0.06.
To C90G U109C belongs 0.07; to U87A U134C, 0.1; to A92G U100C, 0.14.
To A94G A138U belongs 0.36.
Turning to A94G A138C, the self-cleavage stood at 0.22.
The same measure for A94C A124U: 0.
The same measure for A94C A124G: 0.02; for U87A U91A: 0.12; for G93U U108C: 0.05.
The same measure for C90U A117G: 0.06.
Turning to G86A U115A, the self-cleavage worked out at 0.01.
In the case of U87C C98A, the self-cleavage is 0.09.
As to U87C C98U, the self-cleavage amounted to 0.02.
In the case of G89A A117G, the self-cleavage amounted to 0.05.
The same measure for C90G U134A: 0.03; for A92C G93U: 0.06.
In the case of A92G G144A, the self-cleavage stood at 0.09.
